Results published in publication PMC9482650, “Quantitative fragmentomics allow affinity mapping of interactomes” (Nature Communications, 2022).

Assays:
Assay in all cases: PDZ-AP-MS, biotinylated MBP-PDZ baits
Assay type in all cases: binding, human
HeLa cell extract preys = settings: for Ratio: fold enrichment of prey; for Difference: log2 enrichment of prey
Protocol: (§1) For PDZ-AP-MS experiments, PDZ domains were cloned as His6-AviTag-MBP-PDZ constructs. For co-expression with BirA, E. coli BL21(DE3) cells were co-transformed with His6-AviTag-MBP, or His6-AviTag-MBP-PDZ-coding and PET21a-BirA (Addgene #20857) plasmids. Simultaneously to IPTG induction, 50 µM biotin was added to the media. After cell harvesting, the lysis buffer was also supplemented with 50 µM biotin. Otherwise, expression and double affinity purification was identical as previously described in details.
(§2) For PBM-AP-MS experiments, 30 μl streptavidin resin was mixed with biotin or peptide at 50–60 μM concentration in 6–6.5 resin volume for 60 min to achieve resin saturation. For PDZ-AP-MS experiments, 30 μl streptavidin resin was mixed with biotinylated MBP or MBP-PDZ at 40-50 μM concentration in >1000× resin volume for 60 min to achieve resin saturation. After saturation, resins were washed a single time (ten resin volume, holdup buffer), and were depleted with biotin (1 mM biotin, 5–10 resin volume, 10 min). Finally, resins were washed two times. 0.5 ml 2 mg/ml cell lysate was added to the dry resin (1 mg total input) and were incubated at 4 °C for 2 h. Then, the beads were washed three times with 10 resin volume buffer containing: 50 mM TRIS pH 8.5, 150 mM NaCl, 1% TritonX-100, 10× complete EDTA-free protease inhibitor cocktail, 2 mM EDTA, 1 mM TCEP. Then, the beads were washed two times with ten resin volume buffer containing: 50 mM TRIS pH 8.5, 150 mM NaCl, 1 mM TCEP. Finally, captured protein was eluted from the resin in two steps and the eluted fractions were pooled. For each elution the beads were incubated for 30 min with three resin volume buffer containing: 20 mM TRIS pH8.5, 100 mM NaCl, 500 μM TCEP, 8 M Urea. Between each step, the beads were separated by mild centrifugation and the supernatant was removed by gentle pipetting.
(§3) The samples were precipitated with TCA 20% overnight at 4 °C and centrifuged at 14,000 rpm for 10 min at 4 °C. The protein pellets were washed twice with 1 mL cold acetone and air dried. The protein extracts were solubilized in urea 8 M, reduced with 5 mM TCEP for 30 min, and alkylated with 10 mM iodoacetamide for 30 min in the dark. Double digestion was performed at 37 °C with 500 ng endoproteinase Lys-C for 4 h, followed by fourfold dilution and an overnight digestion with 500 ng trypsin. Peptide mixtures were then desalted on C18 spin-column and dried on Speed-Vacuum.
(§4) Samples were analyzed using an Ultimate 3000 nano-RSLC (Thermo Scientific, San Jose California) coupled in line with a LTQ-Orbitrap ELITE mass spectrometer via a nano-electrospray ionization source (Thermo Scientific, San Jose California). Peptide mixtures were injected in 0.1% TFA on a C18 Acclaim PepMap100 trap-column (75 µm ID × 2 cm, 3 µm, 100 Å, Thermo Fisher Scientific) for 3 min at 5 µL/min with 2% ACN, 0.1% FA in H2O and then separated on a C18 Accucore nano-column (75 µm ID × 50 cm, 2.6 µm, 150 Å, Thermo Fisher Scientific) at 220 nl/min and 38 °C with a 90 min linear gradient from 5% to 30% buffer B (A: 0.1% FA in H2O/B: 99% ACN, 0.1% FA in H2O), regeneration at 5% B. The mass spectrometer was operated in positive ionization mode, in data-dependent mode with survey scans from m/z 350–1500 acquired in the Orbitrap at a resolution of 120,000 at m/z 400. The 20 most intense peaks from survey scans were selected for further fragmentation in the Linear Ion Trap with an isolation window of 2.0 Da and were fragmented by CID with normalized collision energy of 35%. (TOP20CID method) Unassigned and single charged states were excluded from fragmentation. The Ion Target Value for the survey scans (in the Orbitrap) and the MS2 mode (in the Linear Ion Trap) were set to 1E6 and 5E3 respectively and the maximum injection time was set to 100 ms for both scan modes. Dynamic exclusion was set to 20 s after one repeat count with mass width at ±10 ppm. […]

[1] = test system: Jurkat cell extract preys; settings: for Difference log2: enrichment of prey
Protocol: as §1, §2, §3, §4

HaCat cell extract preys = settings: for Difference log2: bait TX1BP3 PDZ vs MBP, enrichment of prey; for Ratio TX1BP3/MBP: bait TX1BP3 PDZ, fold change of prey
Protocol: as §1, §2, §3, §4

[2] = PDZ-AP-MS fold change of the PBM-protein prey, bait MBP-PDZ DLG1_1
[3] = PDZ-AP-MS fold change of the PBM-protein prey, bait MBP-PDZ DLG1_2
[4] = PDZ-AP-MS fold change of the PBM-protein prey, bait MBP-PDZ SCRIB_1
[5] = PDZ-AP-MS fold change of the PBM-protein prey, bait MBP-PDZ SCRIB_2
[6] = PDZ-AP-MS fold change of the PBM-protein prey, bait MBP-PDZ SNX27
[7] = PDZ-AP-MS fold change of the PBM-protein prey, bait MBP-PDZ TX1BP3

B1: CAPRIN1 (protein, UniProt Q14444 2-709, looked up)
Caprin-1: PSATSHSGSGSKSSGPPPPSGSSGSEAAAGAGAAAPASQHPATGTGAVQTEAMKQILGVIDKKLRNLEKKKGKLDDYQERMNKGERLNQDQLDAVSKYQEVTNNLEFAKELQRSFMALSQDIQKTIKKTARREQLMREEAEQKRLKTVLELQYVLDKLGDDEVRTDLKQGLNGVPILSEEELSLLDEFYKLVDPERDMSLRLNEQYEHASIHLWDLLEGKEKPVCGTTYKVLKEIVERVFQSNYFDSTHNHQNGLCEEEEAASAPAVEDQVPEAEPEPAEEYTEQSEVESTEYVNRQFMAETQFTSGEKEQVDEWTVETVEVVNSLQQQPQAASPSVPEPHSLTPVAQADPLVRRQRVQDLMAQMQGPYNFIQDSMLDFENQTLDPAIVSAQPMNPTQNMDMPQLVCPPVHSESRLAQPNQVPVQPEATQVPLVSSTSEGYTASQPLYQPSHATEQRPQKEPIDQIQATISLNTDQTTASSSLPAASQPQVFQAGTSKPLHSSGINVNAAPFQSMQTVFNMNAPVPPVNEPETLKQQNQYQASYNQSFSSQPHQVEQTELQQEQLQTVVGTYHGSPDQSHQVTGNHQQPPQQNTGFPRSNQPYYNSRGVSRGGSRGARGLMNGYRGPANGFRGGYDGYRPSFSNTPNSGYTQSQFSAPRDYSGYQRDGYQQNFKRGSGQSGPRGAPRGRGGPPRPNRGMPQMNTQQVN
Ratio (HeLa cell extract preys; bait DLG1_1 PDZ vs MBP control): 30.4665 | Difference (HeLa cell extract preys; bait DLG1_1 PDZ vs MBP control): 4.929

B2: TAX1BP3 (protein, UniProt O14907 2-124, looked up)
Tax1-binding protein 3: SYIPGQPVTAVVQRVEIHKLRQGENLILGFSIGGGIDQDPSQNPFSEDKTDKGIYVTRVSEGGPAEIAGLQIGDKIMQVNGWDMTMVTHDQARKRLTKRSEEVVRLLVTRQSLQKAVQQSMLS
Ratio (HeLa cell extract preys; bait TX1BP3 PDZ vs MBP control): 86.5427 | Difference (HeLa cell extract preys; bait TX1BP3 PDZ vs MBP control): 6.435 | Difference log2 ([1]; bait DLG1_1 PDZ vs MBP): 4.078 | Ratio DLG1_1 / MBP ([1]; bait DLG1_1 PDZ, fold change of prey): 16.8941 | Difference log2 ([1]; bait TX1BP3 PDZ vs MBP): 12.2171 | Ratio TX1BP3/MBP ([1]; bait TX1BP3 PDZ, fold change of prey): 4761.06 | Difference log2 (HaCat cell extract preys): 10.0746 | Ratio TX1BP3/MBP (HaCat cell extract preys): 1078.31

B3: TX1BP3 (protein, UniProt O14907 2-124, looked up)
Tax1-binding protein 3: SYIPGQPVTAVVQRVEIHKLRQGENLILGFSIGGGIDQDPSQNPFSEDKTDKGIYVTRVSEGGPAEIAGLQIGDKIMQVNGWDMTMVTHDQARKRLTKRSEEVVRLLVTRQSLQKAVQQSMLS
Difference log2 (HaCat cell extract preys): 9.132 | Ratio TX1BP3/MBP (HaCat cell extract preys): 561.056

B4: ALDH9A1 (protein, UniProt P49189 1-494, looked up)
4-trimethylaminobutyraldehyde …: MSTGTFVVSQPLNYRGGARVEPADASGTEKAFEPATGRVIATFTCSGEKEVNLAVQNAKAAFKIWSQKSGMERCRILLEAARIIREREDEIATMECINNGKSIFEARLDIDISWQCLEYYAGLAASMAGEHIQLPGGSFGYTRREPLGVCVGIGAWNYPFQIASWKSAPALACGNAMVFKPSPFTPVSALLLAEIYSEAGVPPGLFNVVQGGAATGQFLCQHPDVAKVSFTGSVPTGMKIMEMSAKGIKPVTLELGGKSPLIIFSDCDMNNAVKGALMANFLTQGQVCCNGTRVFVQKEILDKFTEEVVKQTQRIKIGDPLLEDTRMGPLINRPHLERVLGFVKVAKEQGAKVLCGGDIYVPEDPKLKDGYYMRPCVLTNCRDDMTCVKEEIFGPVMSILSFDTEAEVLERANDTTFGLAAGVFTRDIQRAHRVVAELQAGTCFINNYNVSPVELPFGGYKKSGFGRENGRVTIEYYSQLKTVCVEMGDVESAF
Fold changes, HeLa, DLG1_1 (HeLa cell extract preys; [2]): 0.965 | Fold changes, HeLa, DLG1_2 (HeLa cell extract preys; [3]): 0.6499 | Fold changes, HeLa, SCRIB_1 (HeLa cell extract preys; [4]): 1.5654 | Fold changes, HeLa, SCRIB_2 (HeLa cell extract preys; [5]): 0.9621 | Fold changes, HeLa, SNX27 (HeLa cell extract preys; [6]): 23.2299 | Fold changes, HeLa, TX1BP3 (HeLa cell extract preys; [7]): 0.8902 | Fold changes, Jurkat, DLG1_1 [1, 2]: 0.4996 | Fold changes, Jurkat, DLG1_2 [1, 3]: 10.9748 | Fold changes, Jurkat, SCRIB_1 [1, 4]: 0.5795 | Fold changes, Jurkat, SCRIB_2 [1, 5]: 0.6928 | Fold changes, Jurkat, SNX27 [1, 6]: 23.7963 | Fold changes, Jurkat, TX1BP3 [1, 7]: 0.5031 | Fold changes, HaCat, DLG1_1 (HaCat cell extract preys; [2]): 0.7692 | Fold changes, HaCat, DLG1_2 (HaCat cell extract preys; [3]): 1.032 | Fold changes, HaCat, SCRIB_1 (HaCat cell extract preys; [4]): 3.899 | Fold changes, HaCat, SCRIB_2 (HaCat cell extract preys; [5]): 0.6746 | Fold changes, HaCat, SNX27 (HaCat cell extract preys; [6]): 57.4815 | Fold changes, HaCat, TX1BP3 (HaCat cell extract preys; [7]): 0.8437
